According to patent publication US20100172907A1 (Hoffmann-La Roche, published 2010):
Groups on a side chain read outwards from the residue. No end group written: not given here. NSMP = not defined here

T1: BSA-conjugated Aβ heptapeptide LVFFAEC (reading uncertain; also: BSA conjugate)
T1 construct: also called Peptide 17-22
T1 peptide: LVFFAEC([NSMP-BSA])

T2: BSA-conjugated Aβ heptapeptide FFAEDVC (C-terminal Cys coupled to NSMP-activated BSA)
T2 construct: also called Peptide 19-24
T2 peptide: FFAEDVC

T3: BSA-conjugated Aβ heptapeptide AEFRHDC (C-terminal Cys coupled to NSMP-activated BSA)
T3 construct: also called Peptide 2-7
T3 peptide: AEFRHDC

T4: BSA-conjugated Aβ heptapeptide VFFAEDC (C-terminal Cys coupled to NSMP-activated BSA)
T4 construct: also called Peptide 18-23
T4 peptide: VFFAEDC


What was measured:
Aβ (1-42) peptide [1] = molecular target: T5, Aβ (1-42) peptide (human); experiment: SPR, kinetic fit, immobilized fibers;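 also: surface plasmon resonance on a Biacore chip bearing in vitro formed Aβ1-40 or Aβ1-42 fibers, KD taken as koff/kon by fitting time-resolved sensor responses, based on total Fab concentration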
T5 construct: also called Aβ1-42 fibers; Aβ4
Experimental: (§1) Biacore2000 and Biacore3000 instruments were used for these measurements. Aβ1-40 and Aβ1-42 fibers were generated in vitro by incubation of synthetic peptides at a concentration of 200 μg/ml in 10 mM Na-acetate buffer (pH 4.0) for three days at 37° C. […] For binders with slow kinetics KD values were calculated by curve fitting of the time-dependent sensor responses, i.e. from the ratio of koff/kₒₙ. Binders with fast kinetics were analyzed by fitting the concentration-dependent sensor responses at equilibrium (adsorption-isotherms). KD values were calculated from the Biacore sensograms based on the total Fab concentration as determined by a protein assay. […] Briefly, time-dependent protein binding to Aβ1-40 fibers immobilized on the Biacore chip was measured during the association phase under mass-limited conditions at different flow rates of the analyte solution.

human Aβ (1-40) peptide [2] = molecular target: T6, human Aβ (1-40) peptide (human); experiment: SPR, kinetic fit, immobilized fibers;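 also: surface plasmon resonance on a Biacore chip bearing in vitro formed Aβ1-40 or Aβ1-42 fibers, KD taken as koff/kon by fitting time-resolved sensor responses, based on total Fab concentration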
T6 construct: also called Aβ1-40 fibers
Experimental: as §1

Aβ (1-42) peptide [3] = molecular target: T5, Aβ (1-42) peptide; experiment: SPR Scatchard, higher affinity (bivalent)
Experimental: (§2) Binders with fast kinetics were analyzed by fitting the concentration-dependent sensor responses at equilibrium (adsorption-isotherms). KD values were calculated from the Biacore sensograms based on the total Fab concentration as determined by a protein assay. […] Briefly, time-dependent protein binding to Aβ1-40 fibers immobilized on the Biacore chip was measured during the association phase under mass-limited conditions at different flow rates of the analyte solution.
(§3) KD values of IgG binding to Aβ1-40 and Aβ1-42 fibers were determined in the Biacore. Briefly, a kinetic model for the stepwise formation of a bivalent complex was used, and KD values were calculated by Scatchard type analysis of equilibrium binding. Due to the very slow association process at low antibody concentration (several hours to reach equilibrium) equilibrium binding data were obtained by extrapolation of the association curves to long time intervals. The on- and off rates for the formation of the monovalent and bivalent complex were determined via the curve fit procedure and used for the extrapolation. Based on these Req values a Scatchard analysis was performed and KD values for the formation of the monovalent and the bivalent complex were determined.

human Aβ (1-40) peptide [4] = molecular target: T6, human Aβ (1-40) peptide; experiment: SPR Scatchard, higher affinity (bivalent)
Experimental: as §2, §3

[5] = molecular target: T1, BSA-conjugated Aβ heptapeptide LVFFAEC; experiment: ELISA
Experimental: (§4) 50 μl of NSMP activated BSA (6.7 mg/ml) was diluted with 50 μl of PBS, 0.1% sodium azide and 10 μl of peptide solution (1 mM in DMSO) was added. As negative control activated BSA was mock-treated without peptide addition. After 4 hrs at room temperature the reaction was stopped by addition of 10 μl of 10 mM Cystein. An aliquot of the conjugate reaction mixture was diluted 1:100 with 0.1M sodium bicarbonate buffer and immediately filled into the wells (100 μl) of ELISA plates (Nunc Immuno-Plate). After standing 16 hrs at 4° C. 100 μl blocking buffer (as above) was added to each well and incubated for another 30 minutes. The plates were washed with 2×300 μl/well TBST (as above) and filled with 100 μl antibody at 10 μg/ml or 2 μg/ml in blocking buffer. The plates were kept 16 hours at 4° C. and washed with 2×300 μl TBST. 100 μl/well HRP-conjugated anti-human Ig H+L (Pierce, dilution 1:1000 with blocking buffer) was added and incubated for 1 hour at ambient temperature. The plates were washed with 3×300 μl/well TBST. Colour development was started by addition of 100 μl tetra-methyl benzidine/hydrogen peroxide reagent.

[6] = molecular target: T2, BSA-conjugated Aβ heptapeptide FFAEDVC; experiment: ELISA
Experimental: as §4

[7] = molecular target: T3, BSA-conjugated Aβ heptapeptide AEFRHDC; experiment: ELISA
Experimental: as §4

[8] = molecular target: T4, BSA-conjugated Aβ heptapeptide VFFAEDC; experiment: ELISA
Experimental: as §4
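For OD ratio 17-22/BSA in this document: ELISA binding of human antibody (10 or 2 µg/ml) to plate-coated BSA–peptide conjugates, detected with HRP anti-human Ig and TMB colour, mock-treated BSA as negative control.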
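For OD ratio 19-24/BSA in this document: ELISA binding of human antibody (10 or 2 µg/ml) to plate-coated BSA–peptide conjugates, detected with HRP anti-human Ig and TMB colour, mock-treated BSA as negative control.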
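For Peptide-ratio 17-22/2-7 in this document: ELISA binding of human antibody (10 or 2 µg/ml) to plate-coated BSA–peptide conjugates, detected with HRP anti-human Ig and TMB colour, mock-treated BSA as negative control.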
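For Peptide-ratio 19-24/2-7 in this document: ELISA binding of human antibody (10 or 2 µg/ml) to plate-coated BSA–peptide conjugates, detected with HRP anti-human Ig and TMB colour, mock-treated BSA as negative control.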

Binder | Kd (Aβ (1-42) peptide [1]) | Kd (human Aβ (1-40) peptide [2]) | Kd (Aβ (1-42) peptide [3]) | Kd (human Aβ (1-40) peptide [4]) | other results
MS-Roche #7.4H2×7.12L2 Fab (Fab, V domains shown, cross-cloned Fab) VH: QLVESGGGLVQPGGSLRLSCAASGFTFSSYAMSWVRQAPGKGLEWVSAINYNGARIYYADSVKGRFTISRDNSKNTLYLQMNSLRAEDTAVYYCARGKGNTHKPYGYVRYFDVWGQGTLVTVSS VL: DIVLTQSPATLSLSPGERATLSCRASQRFFYKYLAWYQQKPGQAPRLLISGSSNRATGVPARFSGSGSGTDFTLTISSLEPEDFAVYYCLQLYNIPNTFGQGTKVEIKR | 1.8 nM | 1.4 nM |  |  | 
MS-Roche #7.9H2×7.12L2(L1+2) Fab (Fab, V domains shown, VL assembled from the legend's definition and cloning strategy 3) VH: QLVESGGGLVQPGGSLRLSCAASGFTFSSYAMSWVRQAPGKGLEWVSAINADGNRKYYADSVKGRFTISRDNSKNTLYLQMNSLRAEDTAVYYCARGKGNTHKPYGYVRYFDVWGQGTLVTVSS VL: DIVLTQSPATLSLSPGERATLSCRASQRFFYKYLAWYQQKPGQAPRLLISGSSNRATGVPARFSGSGSGTDFTLTISSLEPEDFATYYCLQIYNMPITFGQGTKVEIKR | 0.4 nM | 0.4 nM |  |  | 
MS-R #7.9.H7 IgG1 (antibody, V domains shown, full-length human IgG1; also called MAB 31; MS-Roche IgG #7.9.H7) VH: QVELVESGGGLVQPGGSLRLSCAASGFTFSSYAMSWVRQAPGKGLEWVSAINASGTRTYYADSVKGRFTISRDNSKNTLYLQMNSLRAEDTAVYYCARGKGNTHKPYGYVRYFDVWGQGTLVTVSS VL: DIVLTQSPATLSLSPGERATLSCRASQSVSSSYLAWYQQKPGQAPRLLIYGASSRATGVPARFSGSGSGTDFTLTISSLEPEDFATYYCLQIYNMPITFGQGTKVEIKR |  |  | 0.24 to 0.7 nM | 0.25 to 0.69 nM | OD ratio 17-22/BSA [5]: 5; Peptide-ratio 17-22/2-7 [5]: 0.17; OD ratio 19-24/BSA [6]: 10; Peptide-ratio 19-24/2-7 [6]: 0.33; OD ratio 2-7/BSA [7]: 30; OD ratio 18-23/BSA [8]: 16; Peptide-ratio 18-23/2-7 [8]: 0.53
MS-Roche #8.1H1×8.2L1 Fab (Fab, V domains shown, cross-cloned Fab) VH: QLVESGGGLVQPGGSLRLSCAASGFTFSSYAMSWVRQAPGKGLEWVSAISRSGSNIYYADSVKGRFTISRDNSKNTLYLQMNSLRAEDTAVYYCARLLSRGYNGYYHKFDVWGQGTLVTVSS VL: DIVLTQSPATLSLSPGERATLSCRASQRVSGRYLAWYQQKPGQAPRLLIYGASSRATGVPARFSGSGSGTDFTLTISSLEPEDFATYYCQQLSSYPPTFGQGTKVEIKR | 1.6 nM | 1.3 nM |  |  | 
MS-R IgG1 7.2.H4 (antibody, V domains shown, full-length human IgG1) VH: QVELVESGGGLVQPGGSLRLSCAASGFTFSSYAMSWVRQAPGKGLEWVSAINSKGSRIYYADSVKGRFTISRDNSKNTLYLQMNSLRAEDTAVYYCARGKGNTHKPYGYVRYFDVWGQGTLVTVSS VL: DIVLTQSPATLSLSPGERATLSCRASQSVSSSYLAWYQQKPGQAPRLLIYGASSRATGVPARFSGSGSGTDFTLTISSLEPEDFATYYCQQIYSFPHTFGQGTKVEIK |  |  | 0.1 to 0.66 nM | 0.09 to 0.3 nM | 
MS-R IgG1 3.6.H8 × 3.6.L2 (antibody, V domains shown, full-length human IgG1; VH entry starts at QLVESGG) VH: ELVESGGGLVQPGGSLRLSCAASGFTFSSYAMSWVRQAPGKGLEWVSAISEYSKFKYYADSVKGRFTISRDNSKNTLYLQMNSLRAEDTAVYYCARLTHYARYYRYFDVWGQGTLVTVSS VL: DIVLTQSPATLSLSPGERATLSCRASQFLSRYYLAWYQQKPGQAPRLLIYGASSRATGVPARFSGSGSGTDFTLTISSLEPEDFAVYYCQQTYNYPPTFGQGTKVEIKR |  |  | 0.22 to 0.82 nM | 0.22 to 0.95 nM | 
MS-R IgG1 7.12.L1 (antibody, V domains shown, full-length human IgG1) VH: QVQLVESGGGLVQPGGSLRLSCAASGFTFSSYGMSWVRQAPGKGLEWVSNISGSGSSTYYADSVKGRFTISRDNSKNTLYLQMNSLRAEDTAVYYCARGKGNTHKPYGYVRYFDVWGQGTLVTVSS VL: DIVLTQSPATLSLSPGERATLSCRASQYVFRRYLAWYQQKPGQAPRLLISGSSNRATGVPARFSGSGSGTDFTLTISSLEPEDFAVYYCLQLYNIPNTFGQGTKVEIKR |  |  | 0.74 to 2.9 nM | 1.2 to 3.5 nM | 
MSR 7.9.H2 IgG1 (antibody, V domains shown, full-length human IgG1) VH: QVELVESGGGLVQPGGSLRLSCAASGFTFSSYAMSWVRQAPGKGLEWVSAINADGNRKYYADSVKGRFTISRDNSKNTLYLQMNSLRAEDTAVYYCARGKGNTHKPYGYVRYFDVWGQGTLVTVSS VL: DIVLTQSPATLSLSPGERATLSCRASQSVSSSYLAWYQQKPGQAPRLLIYGASSRATGVPARFSGSGSGTDFTLTISSLEPEDFATYYCLQIYNMPITFGQGTKVEIKR |  |  | 0.11 to 0.38 nM | 0.12 to 0.42 nM | OD ratio 17-22/BSA [5]: 5; Peptide-ratio 17-22/2-7 [5]: 0.38; OD ratio 19-24/BSA [6]: 6; Peptide-ratio 19-24/2-7 [6]: 0.46; OD ratio 2-7/BSA [7]: 13; OD ratio 18-23/BSA [8]: 8; Peptide-ratio 18-23/2-7 [8]: 0.62
MS-Roche #7.2H2×7.2L1 Fab (Fab, V domains shown, cross-cloned Fab) VH: QLVESGGGLVQPGGSLRLSCAASGFTFSSYAMSWVRQAPGKGLEWVSAINGTGMKKYYADSVKGRFTISRDNSKNTLYLQMNSLRAEDTAVYYCARGKGNTHKPYGYVRYFDVWGQGTLVTVSS VL: DIVLTQSPATLSLSPGERATLSCRASQYVDRTYLAWYQQKPGQAPRLLIYGASSRATGVPARFSGSGSGTDFTLTISSLEPEDFATYYCQQIYSFPHTFGQGTKVEIKR | 1.43 nM | 1.29 nM |  |  | 
MS-R IgG1 7.4.H2 × 7.2.L1 (antibody, V domains shown, full-length human IgG1; VH entry starts at QLVESGG) VH: ELVESGGGLVQPGGSLRLSCAASGFTFSSYAMSWVRQAPGKGLEWVSAINYNGARIYYADSVKGRFTISRDNSKNTLYLQMNSLRAEDTAVYYCARGKGNTHKPYGYVRYFDVWGQGTLVTVSS VL: DIVLTQSPATLSLSPGERATLSCRASQYVDRTYLAWYQQKPGQAPRLLIYGASSRATGVPARFSGSGSGTDFTLTISSLEPEDFATYYCQQIYSFPHTFGQGTKVEIKR |  |  | 0.12 to 0.56 nM | 0.12 to 0.63 nM | 
MS-Roche #7.4H2×7.2L1 Fab (Fab, V domains shown, cross-cloned Fab; VH entry starts at QLVESGG) VH: QLVESGGGLVQPGGSLRLSCAASGFTFSSYAMSWVRQAPGKGLEWVSAINYNGARIYYADSVKGRFTISRDNSKNTLYLQMNSLRAEDTAVYYCARGKGNTHKPYGYVRYFDVWGQGTLVTVSS VL: DIVLTQSPATLSLSPGERATLSCRASQYVDRTYLAWYQQKPGQAPRLLIYGASSRATGVPARFSGSGSGTDFTLTISSLEPEDFATYYCQQIYSFPHTFGQGTKVEIKR | 1.4 nM | 1.4 nM |  |  | 
MS-R IgG1 7.11.H1 × 7.11.L1 (antibody, V domains shown, full-length human IgG1; VH entry starts at QLVESGG) VH: ELVESGGGLVQPGGSLRLSCAASGFTFSSYAMSWVRQAPGKGLEWVSGINAAGFRTYYADSVKGRFTISRDNSKNTLYLQMNSLRAEDTAVYYCARGKGNTHKPYGYVRYFDVWGQGTLVTVSS VL: DIVLTQSPATLSLSPGERATLSCRASQRILRIYLAWYQQKPGQAPRLLIYGASSRATGVPARFSGSGSGTDFTLTISSLEPEDFATYYCQQVYSPPHTFGQGTKVEIKR |  |  | 0.13 to 0.7 nM | 0.11 to 0.7 nM | 
MS-R IgG 8.2.H2 × 8.2.L1 (antibody, V domains shown, full-length human IgG) VH: QVELVESGGGLVQPGGSLRLSCAASGFTFSSYAMSWVRQAPGKGLEWVSAISRTGSKTYYADSVKGRFTISRDNSKNTLYLQMNSLRAEDTAVYYCARLLSRGYNGYYHKFDVWGQGTLVTVSS VL: DIVLTQSPATLSLSPGERATLSCRASQRVSGRYLAWYQQKPGQAPRLLIYGASSRATGVPARFSGSGSGTDFTLTISSLEPEDFATYYCQQLSSYPPTFGQGTKVEIKR |  |  |  |  | OD ratio 17-22/BSA [5]: 20; Peptide-ratio 17-22/2-7 [5]: 1.54; OD ratio 19-24/BSA [6]: 25; Peptide-ratio 19-24/2-7 [6]: 1.92; OD ratio 2-7/BSA [7]: 13; OD ratio 18-23/BSA [8]: 25; Peptide-ratio 18-23/2-7 [8]: 1.92
MS-R #7.11.H1×7.2.L1 IgG1 (antibody, V domains shown, full-length human IgG1; VH entry starts at QLVESGG; also called MAB 11) VH: ELVESGGGLVQPGGSLRLSCAASGFTFSSYAMSWVRQAPGKGLEWVSGINAAGFRTYYADSVKGRFTISRDNSKNTLYLQMNSLRAEDTAVYYCARGKGNTHKPYGYVRYFDVWGQGTLVTVSS VL: DIVLTQSPATLSLSPGERATLSCRASQYVDRTYLAWYQQKPGQAPRLLIYGASSRATGVPARFSGSGSGTDFTLTISSLEPEDFATYYCQQIYSFPHTFGQGTKVEIKR |  |  | 0.15 to 0.67 nM | 0.14 to 0.66 nM | 
MS-Roche #7.11H1×7.11L1 Fab (Fab, V domains shown, cross-cloned Fab; VH entry starts at QLVESGG) VH: QLVESGGGLVQPGGSLRLSCAASGFTFSSYAMSWVRQAPGKGLEWVSGINAAGFRTYYADSVKGRFTISRDNSKNTLYLQMNSLRAEDTAVYYCARGKGNTHKPYGYVRYFDVWGQGTLVTVSS VL: DIVLTQSPATLSLSPGERATLSCRASQRILRIYLAWYQQKPGQAPRLLIYGASSRATGVPARFSGSGSGTDFTLTISSLEPEDFATYYCQQVYSPPHTFGQGTKVEIKR | 0.47 nM | 0.41 nM |  |  | 
MS-Roche #7.11H2×7.2L1(L1) Fab (Fab, V domains shown) VH: QLVESGGGLVQPGGSLRLSCAASGFTFSSYAMSWVRQAPGKGLEWVSAINANGYKKYYADSVKGRFTISRDNSKNTLYLQMNSLRAEDTAVYYCARGKGNTHKPYGYVRYFDVWGQGTLVTVSS VL: DIVLTQSPATLSLSPGERATLSCRASQYVDRTYLAWYQQKPGQAPRLLIYGASSRATGVPARFSGSGSGTDFTLTISSLEPEDFATYYCQQIYSFPHTFGQGTKVEIKR | 0.6 nM | 1 nM |  |  | 
MS-R IgG 7.11H2 (antibody, V domains shown, full-length human IgG; also called 7.11H2 IgG) VH: QVELVESGGGLVQPGGSLRLSCAASGFTFSSYAMSWVRQAPGKGLEWVSAINANGYKKYYADSVKGRFTISRDNSKNTLYLQMNSLRAEDTAVYYCARGKGNTHKPYGYVRYFDVWGQGTLVTVSS VL: DIVLTQSPATLSLSPGERATLSCRASQSVSSSYLAWYQQKPGQAPRLLIYGASSRATGVPARFSGSGSGTDFTLTISSLEPEDFATYYCQQVYSPPHTFGQGTKVEIKR |  |  |  |  | OD ratio 17-22/BSA [5]: 6; Peptide-ratio 17-22/2-7 [5]: 0.6; OD ratio 19-24/BSA [6]: 6; Peptide-ratio 19-24/2-7 [6]: 0.6; OD ratio 2-7/BSA [7]: 10; OD ratio 18-23/BSA [8]: 7; Peptide-ratio 18-23/2-7 [8]: 0.7
